# Data taken from patent publication US20060223116.
# T1: truncated GST-fusion T-bet protein, C-terminal fragment
# T1 sequence (Q9UL17 whole entry, species assumed, looked up): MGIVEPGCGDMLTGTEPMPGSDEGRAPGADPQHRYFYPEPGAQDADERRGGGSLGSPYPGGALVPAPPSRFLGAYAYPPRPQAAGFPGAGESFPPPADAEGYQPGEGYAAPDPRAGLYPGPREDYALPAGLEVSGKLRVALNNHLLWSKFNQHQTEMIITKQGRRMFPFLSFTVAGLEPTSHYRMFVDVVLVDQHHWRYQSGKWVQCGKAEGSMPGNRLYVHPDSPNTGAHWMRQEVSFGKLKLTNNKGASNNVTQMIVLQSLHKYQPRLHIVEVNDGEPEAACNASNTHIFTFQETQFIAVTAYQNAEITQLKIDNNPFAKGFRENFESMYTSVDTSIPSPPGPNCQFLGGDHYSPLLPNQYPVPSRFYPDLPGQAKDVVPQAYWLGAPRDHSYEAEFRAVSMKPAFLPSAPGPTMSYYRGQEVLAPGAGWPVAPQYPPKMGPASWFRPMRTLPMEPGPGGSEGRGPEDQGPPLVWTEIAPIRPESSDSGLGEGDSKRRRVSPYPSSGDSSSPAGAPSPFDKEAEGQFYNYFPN
# T2: truncated GST-fusion T-bet protein, N-terminal fragment
# T2 sequence (Q9UL17 whole entry, species assumed, looked up): T1 sequence (Q9UL17 whole entry, species assumed, looked up)
# B1: ITK-FLAG (full length IL-2 inducible T cell tyrosine kinase, FLAG-tagged) (enzyme, UniProt Q08881 1-620, looked up, species assumed)
# chain: MNNFILLEEQLIKKSQQKRRTSPSNFKVRFFVLTKASLAYFEDRHGKKRTLKGSIELSRIKCVEIVKSDISIPCHYKYPFQVVHDNYLLYVFAPDRESRQRWVLALKEETRNNNSLVPKYHPNFWMDGKWRCCSQLEKLATGCAQYDPTKNASKKPLPPTPEDNRRPLWEPEETVVIALYDYQTNDPQELALRRNEEYCLLDSSEIHWWRVQDRNGHEGYVPSSYLVEKSPNNLETYEWYNKSISRDKAEKLLLDTGKEGAFMVRDSRTAGTYTVSVFTKAVVSENNPCIKHYHIKETNDNPKRYYVAEKYVFDSIPLLINYHQHNGGGLVTRLRYPVCFGRQKAPVTAGLRYGKWVIDPSELTFVQEIGSGQFGLVHLGYWLNKDKVAIKTIREGAMSEEDFIEEAEVMMKLSHPKLVQLYGVCLEQAPICLVFEFMEHGCLSDYLRTQRGLFAAETLLGMCLDVCEGMAYLEEACVIHRDLAARNCLVGENQVIKVSDFGMTRFVLDDQYTSSTGTKFPVKWASPEVFSFSRYSSKSDVWSFGVLMWEVFSEGKIPYENRSNSEVVEDISTGFRLYKPRLASTHVYQIMNHCWKERPEDRPAFSRLLRQLAEIAESGL
# modifications: full-length FLAG tag
# Legend:
# [1] = test system: T1, truncated GST-fusion T-bet protein, C-terminal fragment
# [2] = test system: T2, truncated GST-fusion T-bet protein, N-terminal fragment
protein,measurement,setting,value
B1,"in vitro kinase assay (32P-ATP, autoradiography)",[1],"both the N and C terminal fragments but not the DNA binding domain, could be phosphorylated by the Tec kinases, ITK and RLK"
same,"in vitro kinase assay (32P-ATP, autoradiography)",[2],"both the N and C terminal fragments but not the DNA binding domain, could be phosphorylated by the Tec kinases, ITK and RLK"
